The results in this text go back to paper PMC9158119 (Frontiers in Immunology, 2022).

B1: Nb-007 (VHH)
VHH: QLQLVESGGGLVQAGGSMRLSCAASISFSSFPMGWHRQAPGKQRELVAKTGIGGTAYDDSVKGRFTISRDNTKNTVYLQMNSLKVEDTAVYYCWGWRMNDYWGQGTQVTVSS
B2: Nb-008 (VHH)
VHH: EVQVVESGGGLVQAGGSLRLSCAASGSTSNLRVTGWYRQTPGKQRELVAAISNAGATVYPDSVAGRFTLSRDNAKNTVTLQINSLKPEDTAVYYCNARRFGRDYWGQGTQVTVSS
B3: Nb-004 (VHH)
VHH: QLQLVESGGGLVQAGGSLGLSCAASGITLGDYRMGWYRQAPGKQRELVARFTNAGAILYGDSVKGRFTISMNNAKNTVYLQINSLKPEDTAVYYCNARTTRGIDNWGQGTQVTVSS
B4: Nb-010 (VHH)
VHH: EVQVVESGGGLVQAGGSLRLSCTASGSTFTRYPMGWYRQAPGKQRELVAGFTVVGATIYADSVKGRFALSRDNAKKTIDLQLDSLKPDDTGVYYCSMYTYWGQGTQVTVSS
B5: Nb-003 (VHH)
VHH: EVQVVESGGGLVQAGGSLRVSCAASGSTSSRYIMAWYRQAPGKQRELVASITLVGATIYKDSVKGRFTISGDNAKKTVYLQMNNLKPEDTAVYYCNQIDPLIGGPGYWGQGIQVTVSS
B6: Nb-005 (VHH)
VHH: EVQLVESGGGLVQAGGSLRLSCAASGSAFNDYAMGWYRQAPGKQRELVARFTNVGATLSSNSVKGRFTISRDNAKNTVFLQMNSLKPEDTAVYYCHAGHRILLGREYWGQGTQVTVSS
B7: Nb-001 (VHH)
VHH: EVQLVESGGGLVQAGGSLRLSCAASGSIFRLYTIDWYRQAPGKQRELVATISGTSPTNYADSVKGRATISRDNAKNTVYLQINSLKPEDTAVYYCHTVSGNTWGQGTQVTVSS
B8: Nb-006 (VHH)
VHH: QVQLVESGGGLVQAGESLRLSCAASGSTVSPYTMGWYRQAPGKQREWVATIRSDRSTNYADSVLGRFTISRDNAKNTVYLQMNSLKPEDTAVYQCYALQGGLLLGQGTQVTVSS
B9: Nb-002 (VHH)
VHH: EVQLVESGGALVQPGGSLRLSCAASGFTLDAAAIGWFRQAPGKEREWVSCINRVGGGFYSDSAKGRFTISRDNDKNTVYLQMNSLKFEDTAVYYCAADSDSPRFGCSDSRARYEYWGQGTQVTASS

The target in one experiment is T1, SARS-CoV-2 original strain spike receptor-binding domain (S-RBD) (SARS-CoV-2, UniProt P0DTC2). As to the kind of experiment: SPR. Particulars: both partners purified.
Usually Kd stands for a measure of binding affinity in units of concentration. Low readings indicate tighter binding, high ones weaker binding. The molecule B1 gave a Kd of 0.0674 nM.

The next experiment has as its target T1, SARS-CoV-2 original strain spike ….
Assay: not given
Settings: not given
Turning to B2, the binding result was “binds”.

In the case of B3, the binding result is recorded as “binds”.

B4: the binding result is listed as “binds”.

Take B5: the binding result is recorded as “binds”.

Consider B6, for which the binding result is “binds”.

Regarding B7, the binding result is recorded as “binds”.

Turning to B8, the binding result is listed as “binds”.

Regarding B9, the binding result is reported as “binds”.
